Paper doi:10.1101/787473 (2019)

Biological target: full length human importin β (KPNB1), expressed from pET30a-WT Importin β (pKW485) (human, UniProt Q14974 1-876)
Assay: FRET; displacement of importin β-bound Rango sensor

Sequence of full length human importin β (KPNB1), expressed from pET30a-WT Importin β (pKW485) (Q14974 whole entry): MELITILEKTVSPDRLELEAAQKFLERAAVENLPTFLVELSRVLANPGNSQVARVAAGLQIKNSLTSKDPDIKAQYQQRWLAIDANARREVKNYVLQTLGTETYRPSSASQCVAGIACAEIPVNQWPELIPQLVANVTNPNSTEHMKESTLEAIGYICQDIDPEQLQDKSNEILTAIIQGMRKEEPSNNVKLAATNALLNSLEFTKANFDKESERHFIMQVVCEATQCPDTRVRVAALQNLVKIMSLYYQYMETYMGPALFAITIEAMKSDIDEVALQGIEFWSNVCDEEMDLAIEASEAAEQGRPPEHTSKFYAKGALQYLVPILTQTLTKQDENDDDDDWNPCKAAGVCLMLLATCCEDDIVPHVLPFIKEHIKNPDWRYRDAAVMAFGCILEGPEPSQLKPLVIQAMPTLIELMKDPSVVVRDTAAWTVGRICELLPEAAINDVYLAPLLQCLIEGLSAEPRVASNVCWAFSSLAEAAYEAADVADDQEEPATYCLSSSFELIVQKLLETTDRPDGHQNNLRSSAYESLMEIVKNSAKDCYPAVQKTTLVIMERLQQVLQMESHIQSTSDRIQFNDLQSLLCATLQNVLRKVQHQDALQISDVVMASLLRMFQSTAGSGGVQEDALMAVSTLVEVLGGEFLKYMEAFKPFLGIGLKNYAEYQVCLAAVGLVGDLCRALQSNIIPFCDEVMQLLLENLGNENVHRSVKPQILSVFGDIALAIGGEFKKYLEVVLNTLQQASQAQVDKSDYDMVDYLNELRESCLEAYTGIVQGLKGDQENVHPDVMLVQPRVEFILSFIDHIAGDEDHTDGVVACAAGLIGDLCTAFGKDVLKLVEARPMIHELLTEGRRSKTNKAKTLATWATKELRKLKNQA

Question: For GRGRGRGRGRGRGRGRGRGRKC, which Kd is on record?
Answer: The Kd was 17.4 nM.

Question: How did the Kd turn out when PRPRPRPRPRPRPRPRPRPRKC was run?
Answer: The Kd was 8.2 nM.
